± gives the uncertainty stated by the source.
Assay: self-splicing fitness, log relative to wild type (ln ratio); higher = more splicing; Tetrahymena group I intron in knt gene, E. coli kanamycin selection, DiMSum; sequences stand for … in CUCUCU…GGAGGGAAAAGUUAUCAGGCAUGCACCUGGUAGCUAGUCUUUAAACCAAUAGAUUGCAUCGGUUUAAAAGGCAAGACCGUCAAAUUGCGGGAAAGGGGUCAACAGCCGUUCAGUACCAAGUCUCAGGGGAAACUUUGAGAUGGCCUUGCAAAGGGUAUGGUAAUAAGCUGACGGACAUGGUCCUAACCACGCAGCCAAGUCCUAAGUCAACAGAUCUUCUGUUGAUAUGGAUGCAGUUCACAGACUAAAUGUCGGUCGGGGAAGAUGUAUUCUUCUCAUAAGAUAUAGUCGGACCUCUCCUUAAUGGGAGCUAGCGGAUGAAGUGAUGCAACACUGGAGCCGCUGGGAACUAAUUUGUAUGCGAAAGUAUAUUGAUUAGUUUUGGAGUACUCGUGGUCG
Summary of the method: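 Six replicate transformations of E. coli BL21(DE3) with a pET-22b(+) library were grown overnight at 37°C or 30°C. The library randomised all eight P1ex-region intron nucleotides, the intron lying in the knt kanamycin-resistance gene, and plates were LB agar with or without 25 μg/mL kanamycin plus 100 μg/mL carbenicillin, 50 μM IPTG and 0.2% rhamnose. Pooled colonies were amplicon-sequenced on an Illumina HiSeq 2500, and fitness is the DiMSum error-weighted combination of wild-type-normalised replicate fold changes, kanamycin versus none.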

Row | Sequence | self-splicing fitness (ln) (30 °C) | self-splicing fitness (ln) (37 °C)
1 | GCUGAGCAAUAUUACGUGUA | -2.4 ± 0.21 | -3.02 ± 0.32
2 | AGCUAGCAAUAUUACGUGCA | -0.188 ± 0.069 | 0.247 ± 0.096
3 | AUAUAGCAAUAUUACGGCGA | -0.84 ± 0.12 | -0.69 ± 0.13
4 | AAGUAGCAAUAUUACGAAUU | -1.94 ± 0.12 | -0.748 ± 0.15
5 | AUCCAGCAAUAUUACGGUCU | -0.68 ± 0.053 | -0.109 ± 0.074
6 | UCCUAGCAAUAUUACGCCAC | -1.72 ± 0.28 | -1.15 ± 0.27
7 | CAUGAGCAAUAUUACGCCCU | – | -1.18 ± 0.27
8 | AUCGAGCAAUAUUACGUGGC | -2.91 ± 0.26 | -2.52 ± 0.49
9 | AUACAGCAAUAUUACGCUGC | -2.38 ± 0.18 | -3.02 ± 0.29
10 | GGCGAGCAAUAUUACGCCGU | -3.44 ± 0.47 | -1.28 ± 0.45
11 | UGUGAGCAAUAUUACGAAGU | -1.67 ± 0.32 | –
12 | AGCGAGCAAUAUUACGCUCU | -3.64 ± 0.35 | -2.61 ± 0.29
13 | UUUCAGCAAUAUUACGUAAG | -0.33 ± 0.087 | 0.394 ± 0.13
14 | CACAAGCAAUAUUACGCGAU | -3.57 ± 0.15 | -3.18 ± 0.19
15 | CGAAAGCAAUAUUACGAAAC | -2.85 ± 0.19 | -2.14 ± 0.21
16 | AAUUAGCAAUAUUACGCAUA | -1.59 ± 0.15 | -2.07 ± 0.15
17 | UACUAGCAAUAUUACGCAGC | -2.49 ± 0.39 | -2.08 ± 0.39
18 | UGUGAGCAAUAUUACGCUCU | -1.26 ± 0.3 | –
19 | UCCUAGCAAUAUUACGAGUU | -3.71 ± 0.3 | -1.24 ± 0.18
20 | AAUAAGCAAUAUUACGCAAA | -1.62 ± 0.23 | -2.05 ± 0.25
21 | GAAAAGCAAUAUUACGAGGU | -3.97 ± 0.14 | -2.92 ± 0.13
22 | AUGAAGCAAUAUUACGGUGC | -2.3 ± 0.15 | -1.99 ± 0.19
23 | AUUCAGCAAUAUUACGUCUA | -0.634 ± 0.11 | -0.557 ± 0.1
24 | CGGUAGCAAUAUUACGAUUA | -2.71 ± 0.31 | 0.554 ± 0.2
25 | GAUUAGCAAUAUUACGGAGA | -2.78 ± 0.25 | -2.19 ± 0.24
26 | ACCCAGCAAUAUUACGACUA | -0.803 ± 0.082 | -0.765 ± 0.086

Row | Sequence | self-splicing fitness (ln) (30 °C) | self-splicing fitness (ln) (37 °C)
27 | CACGAGCAAUAUUACGAAUG | -2.66 ± 0.11 | -2.17 ± 0.16
28 | CGUGAGCAAUAUUACGACAU | -3.809 ± 0.03 | -2.19 ± 0.039
29 | AGAGAGCAAUAUUACGAUCU | -4.39 ± 0.42 | -2.22 ± 0.2
30 | UGAAAGCAAUAUUACGCAGA | -1.68 ± 0.12 | -1.93 ± 0.15
31 | UUUGAGCAAUAUUACGACUC | -2.58 ± 0.44 | -2.37 ± 0.41
32 | ACGGAGCAAUAUUACGCUCG | -1.67 ± 0.14 | -1.01 ± 0.16
33 | GAUGAGCAAUAUUACGAGCU | -3.65 ± 0.26 | -2.11 ± 0.24
34 | CGAAAGCAAUAUUACGUGAA | -2.52 ± 0.092 | -1.17 ± 0.12
35 | CUAAAGCAAUAUUACGAAUU | -3.57 ± 0.29 | -3.9 ± 0.36
36 | GCCUAGCAAUAUUACGGUAA | -0.151 ± 0.079 | -0.546 ± 0.075
37 | UUCCAGCAAUAUUACGAAAA | -0.987 ± 0.11 | 0.126 ± 0.11
38 | GGUGAGCAAUAUUACGAUCC | – | -0.766 ± 0.35
39 | GCCCAGCAAUAUUACGUAGG | -2.35 ± 0.24 | -2.15 ± 0.2
40 | CGGGAGCAAUAUUACGGGCU | -3.85 ± 0.34 | -2.5 ± 0.41
41 | AUGCAGCAAUAUUACGGUCA | -1.2 ± 0.14 | -1.08 ± 0.14
42 | GAUGAGCAAUAUUACGCCUU | -1.7 ± 0.24 | –
43 | GCGAAGCAAUAUUACGACAU | -0.422 ± 0.012 | 0.0421 ± 0.032
44 | GAACAGCAAUAUUACGUUCU | -3.36 ± 0.13 | -3.63 ± 0.2
45 | AGCUAGCAAUAUUACGAGGG | -3.75 ± 0.21 | -1.34 ± 0.14
46 | ACACAGCAAUAUUACGGCUA | -0.536 ± 0.071 | -0.218 ± 0.074
47 | ACACAGCAAUAUUACGUUAC | -3.18 ± 0.15 | -2.14 ± 0.17
48 | AGCCAGCAAUAUUACGGGAU | -4 ± 0.17 | -2.05 ± 0.12
49 | CUGUAGCAAUAUUACGCAUG | -1.06 ± 0.1 | -0.55 ± 0.13
50 | CAUGAGCAAUAUUACGGAGG | -3 ± 0.14 | -2.16 ± 0.18
51 | ACACAGCAAUAUUACGCCGC | -3.21 ± 0.34 | -1.68 ± 0.16
52 | UUUGAGCAAUAUUACGAAUU | -2.47 ± 0.23 | -2.01 ± 0.3

Row | Sequence | self-splicing fitness (ln) (30 °C) | self-splicing fitness (ln) (37 °C)
53 | UGGAAGCAAUAUUACGAUUA | -1.1 ± 0.11 | 0.012 ± 0.12
54 | UGCCAGCAAUAUUACGCCAC | – | -2.54 ± 0.29
55 | GUGGAGCAAUAUUACGCUGG | -3.52 ± 0.37 | -2.41 ± 0.33
56 | GAGAAGCAAUAUUACGAAGC | -3.21 ± 0.28 | -1.65 ± 0.29
57 | CAGGAGCAAUAUUACGGUGC | -2.68 ± 0.26 | -1.76 ± 0.28
58 | CUACAGCAAUAUUACGCUCC | -3.45 ± 0.24 | -2.11 ± 0.32
59 | GCAUAGCAAUAUUACGGCUC | 0.0416 ± 0.087 | -0.0445 ± 0.088
60 | AAGUAGCAAUAUUACGGCAU | -0.18 ± 0.094 | 0.382 ± 0.12
61 | CACGAGCAAUAUUACGCUCA | -2.85 ± 0.45 | -2.42 ± 0.27
62 | UGAUAGCAAUAUUACGUUAU | -3.61 ± 0.18 | -2.52 ± 0.17
63 | CCUAAGCAAUAUUACGAACG | -1.68 ± 0.13 | -0.478 ± 0.14
64 | UUGCAGCAAUAUUACGAAAG | – | -1.5 ± 0.35
65 | UUUGAGCAAUAUUACGCCGG | -2.04 ± 0.35 | 0.228 ± 0.38
66 | UUAAAGCAAUAUUACGUCCU | -0.682 ± 0.081 | -0.281 ± 0.096
67 | UCGAAGCAAUAUUACGGGUC | -4.14 ± 0.33 | -2.54 ± 0.44
68 | AGGGAGCAAUAUUACGUACU | -1.74 ± 0.26 | -0.673 ± 0.35
69 | CUGUAGCAAUAUUACGGAGA | -2.5 ± 0.21 | -3.56 ± 0.34
70 | CUGGAGCAAUAUUACGGCCU | -2.88 ± 0.38 | -1.85 ± 0.3
71 | CGGAAGCAAUAUUACGGGAA | -3.16 ± 0.46 | -2.3 ± 0.28
72 | UCUGAGCAAUAUUACGGGUA | – | -2.42 ± 0.34
73 | UCGGAGCAAUAUUACGCAUU | – | -2.14 ± 0.27
74 | UAACAGCAAUAUUACGACUA | -0.142 ± 0.049 | -0.212 ± 0.057
75 | UCCCAGCAAUAUUACGCUGG | -3.94 ± 0.16 | -2.62 ± 0.16
76 | ACCAAGCAAUAUUACGUCGG | -2.09 ± 0.074 | -1.36 ± 0.09
77 | UUAGAGCAAUAUUACGGAUU | -3.74 ± 0.28 | -2.48 ± 0.27
78 | GGGAAGCAAUAUUACGUGCA | -1.36 ± 0.1 | 0.0267 ± 0.12

Reference: the supplement of paper PMC7877785
